Laboratory results reported in patent US20240181050A1 (COMPASS THERAPEUTICS, published 2024).

T1: mouse CD137 (recombinant, ForteBio Octet) (mouse, UniProt P20334 24-187, limits assumed)
T1 construct: also called murine CD137
T1 sequence (looked up): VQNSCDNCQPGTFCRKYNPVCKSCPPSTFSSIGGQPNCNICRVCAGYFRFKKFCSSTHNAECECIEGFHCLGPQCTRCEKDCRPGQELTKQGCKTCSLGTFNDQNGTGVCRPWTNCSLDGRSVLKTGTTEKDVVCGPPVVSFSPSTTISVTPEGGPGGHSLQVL

T2: mouse CD137 (equilibrium cell-binding assay) (mouse, UniProt P20334 24-256)
T2 construct: whole, on cells; The cells are not described; also called mCD137
T2 sequence (looked up): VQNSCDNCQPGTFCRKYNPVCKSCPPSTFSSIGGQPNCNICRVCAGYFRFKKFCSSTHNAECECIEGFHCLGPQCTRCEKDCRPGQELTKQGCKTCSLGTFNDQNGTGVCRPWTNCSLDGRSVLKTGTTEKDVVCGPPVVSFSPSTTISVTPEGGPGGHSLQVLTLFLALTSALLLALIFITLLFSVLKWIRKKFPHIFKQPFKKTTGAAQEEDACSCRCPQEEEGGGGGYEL


Experiments:
[1] = biological target: T1, mouse CD137 (recombinant, ForteBio …); assay: ForteBio Octet (BLI) as described in Example 2
Description: Affinity of the CD137 antibodies was determined by measuring their kinetic constants (kₐ, kd, KD) on ForteBio Octet. ForteBio affinity measurements were performed generally as previously described (Estep et al., MAbs. 2013 5(2):270-8). Briefly, ForteBio affinity measurements were performed by loading antibodies (IgGs) on-line onto AHQ sensors. Sensors were equilibrated off-line in assay buffer for 30 minutes and then monitored on-line for 60 seconds for baseline establishment. For avid binding measurement, sensors with loaded IgGs were exposed to 100 nM antigen (human, cyno, or murine CD137) for 3 minutes, afterwards they were transferred to assay buffer for 3 minutes for off-rate measurement. Monovalent binding measurements were obtained by loading human CD137-Fc fusion on AHQ sensors followed by exposure to 200 nM antibody Fab in solution. Kinetics data were fit using a 1:1 binding model in the data analysis software provided by ForteBio (data not shown).

[2] = biological target: T3, purified recombinant his tagged human CD137 (human, UniProt Q07011 24-186); assay: Carterra MX96 SPRi; antibody printed on chip, his tagged human CD137 injected
T3 construct: not shown: his tag
Description: The resulting anti-CD137 antibodies from different selection rounds were plotted on kd/kₐ double log plots. Apparent association and dissociation kinetic rate constants (kₐ and kd values) were determined on an SPRi reader (MX96, Carterra) in a running buffer of PBS-T 0.01%. Anti-human CD137 antibodies were covalently printed on a Carboxymethyldextran hydrogel 50 L chip (Xantec bioanalytics) on a CFM (Carterra). Freshly mixed activating reagents (150 […] 0.1 M sulfo-NHS in H2O) were used to activate the surface of the SPR substrate for 7 minutes. Antibodies at 10 mg/ml in acetic acid buffer pH 4.5 were used for printing for 15 minutes. The printed chip was then quenched on SPRi reader (MX96, Carterra) with 1 M ethanolamine for 15 minutes. For kinetics analysis, purified recombinant his tagged human CD137 (0, 2.05, 5.12, 12.8, 32, 80, 200, 500 nM) was injected sequentially. For each concentration, there was 5 minutes of association followed by 10 minutes of dissociation. Data were processed and analyzed in SPR Inspection Tool and Scrubber softwares. The kinetic data were referenced with the interstitial reference spots and double-referenced to a buffer cycle, and then fit globally to a 1:1 binding model to determine their apparent association and dissociation kinetic rate constants (kₐ and kd values). The ratio kd/kₐ was used to derive the KD value of each antigen/mAb interaction, i.e. KD=kd/kₐ.

[3] = biological target: T4, human CD137 (recombinant, construct not stated) (human, UniProt Q07011 24-186); assay: Wasatch SPR kinetics, human CD137
T4 construct: also called huCD137; 4-1BB

[4] = biological target: T2, mouse CD137 (equilibrium cell-binding …); assay: equilibrium cell-binding assay, mouse CD137

| Binder | Kd [1] [nM] | Kd [2] [nM] | Kd [3] [nM] | Kd [4] [nM] | also measured |
| --- | --- | --- | --- | --- | --- |
| mAb12 (antibody, IgG4, V domains shown) VH: not shown VL: DIQLTQSPSSLSASVGDRVTITCRASQDIGDWLAWYQQKPGKAPKLLIYKASGLQSGVPSRFSGSGSGTEFTLTISNLQPEDFATYYCQQGNQFPLTFGQGTRLE | 25.8 | 12.1 | – | – | – |
| mAb11 (antibody, IgG4, V domains shown) VH: not shown VL: DIQMTQSPSTLSASVGDRVTITCRASQNIHNWLAWYQQKPGKAPKLLIYKASGLESGVPSRFSGSGSGTEFTLTISSLQPDDFATYYCQQGDRFPLTFGGGTKVEIK | 4.8 | 4.1 | – | – | – |
| mAb1 wild type, reference of the CDRH3 alanine scan (antibody, V domains shown, The derivatives were cloned into an aglyco-IgG1 expression vector (DID-2600); also called WT KD) VH: not shown VL: DIQMTQSPSSVSASVGDRVTITCRASQGISSWLAWYQQKPGKAPKLLIYAASSLQSGVPSRFSGSGSGTDFTLTISSLQPEDFATYYCQQGHLFPITFGGGTKVEIK | – | – | 1 | 11 | – |
| anti-CD137 mAb8 (antibody, V domains shown, Generated with IgG4 constant regions) VH: EVQLLESGGGLVQPGGSLRLSCAASGFTFRNYAMSWVRQAPGKGLEWVSAISGSGDTTYYADSVKGRFTISRDNSKNTLYLQMNSLRAEDTAVYYCAKDSPFLLDDYYYYYYMDVWGKGTTVTVSS VL: DIQMTQSPSSVSASVGDRVTITCRASQGISSWLAWYQQKPGKAPKLLIYAASSLQSGVPSRFSGSGSGTDFTLTISSLQPEDFATYYCQQGHLFPITFGGGTKVEIK | 72 | 3.2 | – | – | – |
| mAb7 (antibody, IgG4, V domains shown) VH: EVQLLESGGGLVQPGGSLRLSCAASGFTFNYYAMSWVRQAPGKGLEWVSAIDGSGDNTTYADSVKGRFTISRDNSKNTLYLQMNSLRAEDTAVYYCAKDSPFLLDDYYYYYYMDVWGKGTTVTVSS VL: DIQMTQSPSSVSASVGDRVTITCRASQGISSWLAWYQQKPGKAPKLLIYAASSLQSGVPSRFSGSGSGTDFTLTISSLQPEDFATYYCQQGHLFPITFGGGTKVEIK | 1.2 | 6.8 | – | – | – |
| mAb1 alanine-substituted derivative Y(100D)A (antibody, IgG1, V domains shown, aglyco-IgG1 vector (DID-2600)) VH: not shown VL: DIQMTQSPSSVSASVGDRVTITCRASQGISSWLAWYQQKPGKAPKLLIYAASSLQSGVPSRFSGSGSGTDFTLTISSLQPEDFATYYCQQGHLFPITFGGGTKVEIK | – | – | – | 170 | – |
| mAb1 alanine-substituted derivative Y(100G)A (antibody, IgG1, V domains shown, aglyco-IgG1 vector (DID-2600)) VH: not shown VL: DIQMTQSPSSVSASVGDRVTITCRASQGISSWLAWYQQKPGKAPKLLIYAASSLQSGVPSRFSGSGSGTDFTLTISSLQPEDFATYYCQQGHLFPITFGGGTKVEIK | – | – | – | – | binding result [3]: no binding; binding result [4]: no binding |
| mAb1 alanine-substituted derivative Y(100E)A (antibody, IgG1, V domains shown, aglyco-IgG1 vector (DID-2600)) VH: not shown VL: DIQMTQSPSSVSASVGDRVTITCRASQGISSWLAWYQQKPGKAPKLLIYAASSLQSGVPSRFSGSGSGTDFTLTISSLQPEDFATYYCQQGHLFPITFGGGTKVEIK | – | – | – | – | binding result [3]: no binding; binding result [4]: no binding |
| mAb1 alanine-substituted derivative Y(100C)A (antibody, IgG1, V domains shown, aglyco-IgG1 vector (DID-2600)) VH: not shown VL: DIQMTQSPSSVSASVGDRVTITCRASQGISSWLAWYQQKPGKAPKLLIYAASSLQSGVPSRFSGSGSGTDFTLTISSLQPEDFATYYCQQGHLFPITFGGGTKVEIK | – | – | 1 | 25 | – |
| mAb1 alanine-substituted derivative D95A (antibody, V domains shown, aglyco-IgG1 vector (DID-2600)) VH: not shown VL: DIQMTQSPSSVSASVGDRVTITCRASQGISSWLAWYQQKPGKAPKLLIYAASSLQSGVPSRFSGSGSGTDFTLTISSLQPEDFATYYCQQGHLFPITFGGGTKVEIK | – | – | – | – | binding result [3]: no binding; binding result [4]: no binding |
| mAb9 (antibody, IgG4, V domains shown) VH: not shown VL: DIQMTQSPSSVSASVGDRVTITCRASQGISSWLAWYQQKPGKAPKLLIYAASSLQSGVPSRFSGSGSGTDFTLTISSLQPEDFATYYCQQGHLFPITFGGGTKVEIK | 6.9 | 41.4 | – | – | – |
| mAb1 alanine-substituted derivative Y(100H)A (antibody, IgG1, V domains shown, aglyco-IgG1 vector (DID-2600)) VH: not shown VL: DIQMTQSPSSVSASVGDRVTITCRASQGISSWLAWYQQKPGKAPKLLIYAASSLQSGVPSRFSGSGSGTDFTLTISSLQPEDFATYYCQQGHLFPITFGGGTKVEIK | – | – | – | – | binding result [3]: no binding; binding result [4]: no binding |
| anti-CD137 mAb10 (antibody, IgG4, V domains shown, Generated with IgG4 constant regions) VH: EVQLLESGGGLVQPGGSLRLSCAASGFTFYGYAMSWVRQAPGKGLEWVAAISGSGDSTYYADSVKGRFTISRDNSKNTLYLQMNSLRAEDTAVYYCAKDSPFLLDDYYYYYYMDVWGKGTTVTVSS VL: DIQMTQSPSSVSASVGDRVTITCRASQGISSWLAWYQQKPGKAPKLLIYAASSLQSGVPSRFSGSGSGTDFTLTISSLQPEDFATYYCQQGHLFPITFGGGTKVEIK | 8.4 | 20 | – | – | – |
| mAb1 alanine-substituted derivative D(100B)A (antibody, IgG1, V domains shown, aglyco-IgG1 vector (DID-2600)) VH: not shown VL: DIQMTQSPSSVSASVGDRVTITCRASQGISSWLAWYQQKPGKAPKLLIYAASSLQSGVPSRFSGSGSGTDFTLTISSLQPEDFATYYCQQGHLFPITFGGGTKVEIK | – | – | 1.3 | 54 | – |
| mAb1 alanine-substituted derivative L100A (antibody, IgG1, V domains shown, aglyco-IgG1 vector (DID-2600); Leucine at position 100 is changed to alanine) VH: not shown VL: DIQMTQSPSSVSASVGDRVTITCRASQGISSWLAWYQQKPGKAPKLLIYAASSLQSGVPSRFSGSGSGTDFTLTISSLQPEDFATYYCQQGHLFPITFGGGTKVEIK | – | – | – | – | binding result [3]: no binding; binding result [4]: no binding |
| mAb1 alanine-substituted derivative L99A (antibody, IgG1, V domains shown, aglyco-IgG1 vector (DID-2600)) VH: not shown VL: DIQMTQSPSSVSASVGDRVTITCRASQGISSWLAWYQQKPGKAPKLLIYAASSLQSGVPSRFSGSGSGTDFTLTISSLQPEDFATYYCQQGHLFPITFGGGTKVEIK | – | – | 2.7 | 33 | – |
| mAb1 alanine-substituted derivative S96A (antibody, IgG1, V domains shown, aglyco-IgG1 vector (DID-2600)) VH: not shown VL: DIQMTQSPSSVSASVGDRVTITCRASQGISSWLAWYQQKPGKAPKLLIYAASSLQSGVPSRFSGSGSGTDFTLTISSLQPEDFATYYCQQGHLFPITFGGGTKVEIK | – | – | 1.8 | 40 | – |
| mAb1 alanine-substituted derivative M(100I)A (antibody, IgG1, V domains shown, aglyco-IgG1 vector (DID-2600)) VH: not shown VL: DIQMTQSPSSVSASVGDRVTITCRASQGISSWLAWYQQKPGKAPKLLIYAASSLQSGVPSRFSGSGSGTDFTLTISSLQPEDFATYYCQQGHLFPITFGGGTKVEIK | – | – | 1.8 | 21 | – |
